In the supplement of paper PMC10065799, “High-throughput profiling of sequence recognition by tyrosine kinases and SH2 domains using bacterial peptide display” (eLife, 2023):
Values belong to the sequence of their own block, whether it stands above or below them.

Tests used:
Grb2 SH2 = Grb2 SH2 (UniProt P62993); assay: SH2 binding enrichment of the phosphorylated peptide, bacterial display (enrichment ratio); higher = better substrate or ligand; peptides without Tyr show the background
SHP2-C SH2 = assay: as above
c-Src SH2 = assay: as above
Jak2 = Jak2 (UniProt O60674); assay: phosphorylation enrichment, bacterial display (enrichment ratio); higher = better substrate or ligand; peptides without Tyr show the background
Fer (mouse) = assay: as above
AncSZ = assay: as above
c-Abl (mouse) = assay: as above
Fyn = Fyn (UniProt P06241); assay: as above
Chain of Fyn (P06241 whole entry, looked up): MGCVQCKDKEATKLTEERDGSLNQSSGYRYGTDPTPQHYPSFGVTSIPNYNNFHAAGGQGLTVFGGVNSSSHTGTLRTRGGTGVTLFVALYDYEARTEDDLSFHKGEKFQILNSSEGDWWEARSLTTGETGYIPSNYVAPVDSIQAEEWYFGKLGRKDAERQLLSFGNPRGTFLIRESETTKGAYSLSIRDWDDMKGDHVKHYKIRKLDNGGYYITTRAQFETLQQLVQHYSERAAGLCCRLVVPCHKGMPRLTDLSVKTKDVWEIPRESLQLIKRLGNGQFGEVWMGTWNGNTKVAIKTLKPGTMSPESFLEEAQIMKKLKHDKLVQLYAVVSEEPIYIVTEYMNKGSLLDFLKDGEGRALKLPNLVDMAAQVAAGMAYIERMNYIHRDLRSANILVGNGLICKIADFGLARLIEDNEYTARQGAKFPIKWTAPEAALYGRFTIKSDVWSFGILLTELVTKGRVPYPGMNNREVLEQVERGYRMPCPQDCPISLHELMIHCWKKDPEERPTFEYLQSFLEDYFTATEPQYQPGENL

MERTK = MERTK (UniProt Q12866); assay: as above
Chain of MERTK (Q12866 whole entry, looked up): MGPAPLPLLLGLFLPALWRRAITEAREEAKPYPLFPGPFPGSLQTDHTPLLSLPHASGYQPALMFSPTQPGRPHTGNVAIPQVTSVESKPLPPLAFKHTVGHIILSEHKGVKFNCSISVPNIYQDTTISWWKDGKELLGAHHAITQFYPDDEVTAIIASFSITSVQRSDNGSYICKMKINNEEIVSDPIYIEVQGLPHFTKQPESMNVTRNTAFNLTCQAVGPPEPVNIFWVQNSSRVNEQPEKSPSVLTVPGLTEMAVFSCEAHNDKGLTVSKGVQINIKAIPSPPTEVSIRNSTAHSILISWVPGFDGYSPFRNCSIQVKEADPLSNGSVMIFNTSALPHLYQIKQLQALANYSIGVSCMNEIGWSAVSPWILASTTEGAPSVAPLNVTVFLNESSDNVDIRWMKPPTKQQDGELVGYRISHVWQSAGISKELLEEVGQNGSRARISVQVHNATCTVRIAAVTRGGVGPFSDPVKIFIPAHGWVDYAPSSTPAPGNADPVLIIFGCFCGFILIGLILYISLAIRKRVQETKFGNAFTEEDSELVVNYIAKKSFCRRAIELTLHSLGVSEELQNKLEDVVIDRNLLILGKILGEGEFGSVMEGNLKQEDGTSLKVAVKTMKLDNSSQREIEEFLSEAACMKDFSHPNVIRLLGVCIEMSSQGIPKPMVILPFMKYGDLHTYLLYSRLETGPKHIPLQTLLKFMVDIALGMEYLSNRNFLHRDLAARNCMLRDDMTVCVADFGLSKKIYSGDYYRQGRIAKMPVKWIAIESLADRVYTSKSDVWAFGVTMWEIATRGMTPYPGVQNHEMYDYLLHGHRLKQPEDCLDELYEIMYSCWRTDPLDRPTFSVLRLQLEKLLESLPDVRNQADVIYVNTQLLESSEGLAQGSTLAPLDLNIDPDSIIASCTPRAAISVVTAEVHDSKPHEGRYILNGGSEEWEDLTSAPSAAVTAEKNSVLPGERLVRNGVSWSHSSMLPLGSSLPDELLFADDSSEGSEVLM

EPHB2 = EPHB2 (UniProt P29323); assay: as above
Fes = Fes (UniProt P07332); assay: as above
Chain of Fes (P07332 whole entry, looked up): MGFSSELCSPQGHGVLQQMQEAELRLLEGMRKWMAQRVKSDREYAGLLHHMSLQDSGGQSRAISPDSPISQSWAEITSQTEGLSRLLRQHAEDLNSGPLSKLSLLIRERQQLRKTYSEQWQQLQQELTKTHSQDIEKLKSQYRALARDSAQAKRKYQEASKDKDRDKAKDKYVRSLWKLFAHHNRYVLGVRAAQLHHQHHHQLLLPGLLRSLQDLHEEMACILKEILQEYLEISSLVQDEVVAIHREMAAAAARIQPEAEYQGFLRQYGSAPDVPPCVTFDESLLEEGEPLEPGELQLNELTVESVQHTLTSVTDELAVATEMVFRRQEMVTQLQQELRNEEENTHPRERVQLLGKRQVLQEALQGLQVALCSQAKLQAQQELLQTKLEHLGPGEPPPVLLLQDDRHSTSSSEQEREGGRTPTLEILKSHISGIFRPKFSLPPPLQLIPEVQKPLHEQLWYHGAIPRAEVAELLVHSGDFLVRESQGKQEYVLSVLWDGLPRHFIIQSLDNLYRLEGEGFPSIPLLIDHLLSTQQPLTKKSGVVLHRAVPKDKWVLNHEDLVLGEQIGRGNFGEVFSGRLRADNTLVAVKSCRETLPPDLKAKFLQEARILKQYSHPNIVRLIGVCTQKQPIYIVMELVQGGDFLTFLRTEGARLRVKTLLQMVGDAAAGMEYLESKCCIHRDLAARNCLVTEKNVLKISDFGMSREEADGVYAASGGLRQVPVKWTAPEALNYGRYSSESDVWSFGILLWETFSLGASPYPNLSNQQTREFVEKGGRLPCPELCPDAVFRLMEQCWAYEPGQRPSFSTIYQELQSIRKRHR

Hck = Hck (UniProt P08631); assay: as above
Chain of Hck (P08631 whole entry, looked up): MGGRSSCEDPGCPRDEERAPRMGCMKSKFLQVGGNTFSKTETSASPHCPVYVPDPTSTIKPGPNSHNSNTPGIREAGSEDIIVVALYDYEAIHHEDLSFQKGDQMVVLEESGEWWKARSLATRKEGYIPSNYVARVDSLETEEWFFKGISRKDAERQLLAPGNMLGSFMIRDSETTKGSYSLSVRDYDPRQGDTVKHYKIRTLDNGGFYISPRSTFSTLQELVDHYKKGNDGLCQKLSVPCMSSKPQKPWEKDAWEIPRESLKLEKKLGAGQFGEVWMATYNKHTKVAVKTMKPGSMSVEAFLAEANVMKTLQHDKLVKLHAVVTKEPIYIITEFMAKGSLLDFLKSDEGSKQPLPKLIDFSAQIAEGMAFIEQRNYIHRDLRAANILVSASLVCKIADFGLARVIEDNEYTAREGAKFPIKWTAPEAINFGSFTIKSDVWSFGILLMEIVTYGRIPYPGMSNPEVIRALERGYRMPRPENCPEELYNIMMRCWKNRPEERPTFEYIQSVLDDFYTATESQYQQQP

FGFR1 = FGFR1 (UniProt P11362); assay: as above
Chain of FGFR1 (P11362 whole entry, looked up): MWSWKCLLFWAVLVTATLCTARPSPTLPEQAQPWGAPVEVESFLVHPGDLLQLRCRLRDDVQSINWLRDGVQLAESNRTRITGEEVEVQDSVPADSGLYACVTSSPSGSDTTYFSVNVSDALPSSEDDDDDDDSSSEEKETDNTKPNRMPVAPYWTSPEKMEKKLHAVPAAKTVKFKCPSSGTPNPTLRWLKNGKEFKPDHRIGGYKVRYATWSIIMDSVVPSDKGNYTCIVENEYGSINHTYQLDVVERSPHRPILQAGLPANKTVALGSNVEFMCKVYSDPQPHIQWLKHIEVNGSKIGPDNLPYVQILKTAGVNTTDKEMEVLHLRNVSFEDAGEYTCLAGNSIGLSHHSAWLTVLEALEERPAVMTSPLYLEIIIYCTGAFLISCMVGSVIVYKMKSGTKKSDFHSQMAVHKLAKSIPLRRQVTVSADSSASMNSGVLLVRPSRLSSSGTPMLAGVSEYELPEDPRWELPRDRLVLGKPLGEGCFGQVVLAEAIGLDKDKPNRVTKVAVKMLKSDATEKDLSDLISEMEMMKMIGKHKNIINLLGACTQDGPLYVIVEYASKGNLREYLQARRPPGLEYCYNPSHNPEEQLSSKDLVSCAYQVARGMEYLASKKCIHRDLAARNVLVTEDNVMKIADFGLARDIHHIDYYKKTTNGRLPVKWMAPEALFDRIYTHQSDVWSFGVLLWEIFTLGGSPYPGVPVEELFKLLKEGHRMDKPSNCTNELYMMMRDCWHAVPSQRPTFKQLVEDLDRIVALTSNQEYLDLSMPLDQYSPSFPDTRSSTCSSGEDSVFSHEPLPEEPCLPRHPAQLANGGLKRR

c-Src = assay: as above
FGFR3 = FGFR3 (UniProt P22607); assay: as above
EPHB1 = EPHB1 (UniProt P54762); assay: as above
Chain of EPHB1 (P54762 whole entry, looked up, the tested form may be a part): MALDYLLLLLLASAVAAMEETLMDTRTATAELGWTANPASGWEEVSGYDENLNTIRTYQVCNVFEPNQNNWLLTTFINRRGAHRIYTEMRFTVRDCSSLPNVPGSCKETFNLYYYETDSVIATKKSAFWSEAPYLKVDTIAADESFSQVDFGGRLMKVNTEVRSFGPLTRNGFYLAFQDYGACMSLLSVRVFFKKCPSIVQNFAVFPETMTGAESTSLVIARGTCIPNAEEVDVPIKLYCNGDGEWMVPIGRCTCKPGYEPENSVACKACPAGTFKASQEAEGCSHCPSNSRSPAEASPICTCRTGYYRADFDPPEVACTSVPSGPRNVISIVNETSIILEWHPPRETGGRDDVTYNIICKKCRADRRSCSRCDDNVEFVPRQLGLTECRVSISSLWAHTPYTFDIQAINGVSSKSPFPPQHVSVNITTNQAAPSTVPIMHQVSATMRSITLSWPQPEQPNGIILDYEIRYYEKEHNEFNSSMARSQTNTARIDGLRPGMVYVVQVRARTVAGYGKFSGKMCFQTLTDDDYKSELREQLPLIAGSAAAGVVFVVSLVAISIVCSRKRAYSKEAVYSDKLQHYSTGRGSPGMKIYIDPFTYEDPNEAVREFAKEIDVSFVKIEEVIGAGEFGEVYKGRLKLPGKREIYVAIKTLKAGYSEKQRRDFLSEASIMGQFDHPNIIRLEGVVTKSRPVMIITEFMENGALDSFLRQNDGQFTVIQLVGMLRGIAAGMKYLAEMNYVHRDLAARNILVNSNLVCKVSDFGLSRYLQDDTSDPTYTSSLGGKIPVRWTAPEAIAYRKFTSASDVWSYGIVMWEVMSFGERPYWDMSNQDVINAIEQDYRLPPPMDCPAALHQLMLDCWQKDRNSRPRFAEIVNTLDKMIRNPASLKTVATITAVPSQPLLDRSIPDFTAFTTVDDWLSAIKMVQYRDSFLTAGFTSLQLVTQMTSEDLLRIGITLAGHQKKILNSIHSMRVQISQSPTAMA
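Wherever SH2 binding enrichment of the phosphorylated peptide, bacterial display is given: peptide library displayed on the E. coli surface as eCPX fusions, selected cells deep-sequenced, score is each peptide's frequency after selection divided by its frequency in the input.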
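Wherever phosphorylation enrichment, bacterial display is given: 11-residue human phosphosite peptides and single-mutation variants displayed on the E. coli surface, counted by deep sequencing, each peptide's frequency after selection divided by its frequency in the unselected input library; frequency after pTyr selection over input frequency; kinase dosed for 20-30% of maximal phosphorylation in three min.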

Sequence: GTATAYLCGVK [ALPL_Y117]
SH2 binding enrichment (Grb2 SH2): 0.763
SH2 binding enrichment (SHP2-C SH2): 0.695
SH2 binding enrichment (c-Src SH2): 0.432
phosphorylation enrichment (Jak2): 0.89
phosphorylation enrichment (Fer (mouse)): 0.463
phosphorylation enrichment (AncSZ): 0.756
phosphorylation enrichment (c-Abl (mouse)): 0.667
phosphorylation enrichment (Fyn): 0.472
phosphorylation enrichment (MERTK): 0.352
phosphorylation enrichment (EPHB2): 0.507
phosphorylation enrichment (Fes): 1.07
phosphorylation enrichment (Hck): 0.501
phosphorylation enrichment (FGFR1): 0.485
phosphorylation enrichment (c-Src): 0.427
phosphorylation enrichment (FGFR3): 0.595
phosphorylation enrichment (EPHB1): 0.512

Sequence: SHGQDYLAGNK [GSTA2_Y147_V149A]
SH2 binding enrichment (Grb2 SH2): 1.11
SH2 binding enrichment (SHP2-C SH2): 0.693
SH2 binding enrichment (c-Src SH2): 0.583
phosphorylation enrichment (Jak2): 0.64
phosphorylation enrichment (Fer (mouse)): 0.421
phosphorylation enrichment (AncSZ): 0.641
phosphorylation enrichment (c-Abl (mouse)): 0.452
phosphorylation enrichment (Fyn): 0.458
phosphorylation enrichment (MERTK): 0.471
phosphorylation enrichment (EPHB2): 0.36
phosphorylation enrichment (Fes): 0.845
phosphorylation enrichment (Hck): 0.364
phosphorylation enrichment (FGFR1): 0.597
phosphorylation enrichment (c-Src): 0.404
phosphorylation enrichment (FGFR3): 0.49
phosphorylation enrichment (EPHB1): 0.348

Sequence: IGEGTYRQVYK [CDK13_Y716_G717R]
SH2 binding enrichment (Grb2 SH2): 0.874
SH2 binding enrichment (SHP2-C SH2): 0.89
SH2 binding enrichment (c-Src SH2): 0.589
phosphorylation enrichment (Jak2): 0.655
phosphorylation enrichment (Fer (mouse)): 0.449
phosphorylation enrichment (AncSZ): 0.492
phosphorylation enrichment (c-Abl (mouse)): 0.492
phosphorylation enrichment (Fyn): 0.368
phosphorylation enrichment (MERTK): 0.319
phosphorylation enrichment (EPHB2): 0.465
phosphorylation enrichment (Fes): 0.546
phosphorylation enrichment (Hck): 0.411
phosphorylation enrichment (FGFR1): 0.42
phosphorylation enrichment (c-Src): 0.521
phosphorylation enrichment (FGFR3): 0.391
phosphorylation enrichment (EPHB1): 0.289

Sequence: CTTIFYNFMCN [TP53_Y234_H233Y_YF]
SH2 binding enrichment (Grb2 SH2): 2.09
SH2 binding enrichment (SHP2-C SH2): 1.8
SH2 binding enrichment (c-Src SH2): 1.45
phosphorylation enrichment (Jak2): 1.28
phosphorylation enrichment (Fer (mouse)): 1.05
phosphorylation enrichment (AncSZ): 1.12
phosphorylation enrichment (c-Abl (mouse)): 0.597
phosphorylation enrichment (Fyn): 0.592
phosphorylation enrichment (MERTK): 1.93
phosphorylation enrichment (EPHB2): 0.634
phosphorylation enrichment (Fes): 1.42
phosphorylation enrichment (Hck): 0.562
phosphorylation enrichment (FGFR1): 1.05
phosphorylation enrichment (c-Src): 1.69
phosphorylation enrichment (FGFR3): 1.12
phosphorylation enrichment (EPHB1): 0.686

Sequence: LARDMHDKEYY [MET_Y1230_Y1230H]
SH2 binding enrichment (Grb2 SH2): 0.625
SH2 binding enrichment (SHP2-C SH2): 0.962
SH2 binding enrichment (c-Src SH2): 0.395
phosphorylation enrichment (Jak2): 0.628
phosphorylation enrichment (Fer (mouse)): 0.426
phosphorylation enrichment (AncSZ): 0.763
phosphorylation enrichment (c-Abl (mouse)): 0.395
phosphorylation enrichment (Fyn): 0.445
phosphorylation enrichment (MERTK): 0.404
phosphorylation enrichment (EPHB2): 0.507
phosphorylation enrichment (Fes): 0.678
phosphorylation enrichment (Hck): 0.385
phosphorylation enrichment (FGFR1): 0.46
phosphorylation enrichment (c-Src): 0.425
phosphorylation enrichment (FGFR3): 0.589
phosphorylation enrichment (EPHB1): 0.469

Sequence: PDMHSYMVRYN [GRIN2D_Y732]
SH2 binding enrichment (Grb2 SH2): 0.858
SH2 binding enrichment (SHP2-C SH2): 0.97
SH2 binding enrichment (c-Src SH2): 0.613
phosphorylation enrichment (Jak2): 1.07
phosphorylation enrichment (Fer (mouse)): 0.674
phosphorylation enrichment (AncSZ): 0.955
phosphorylation enrichment (c-Abl (mouse)): 1.02
phosphorylation enrichment (Fyn): 0.64
phosphorylation enrichment (MERTK): 0.616
phosphorylation enrichment (EPHB2): 0.787
phosphorylation enrichment (Fes): 1.09
phosphorylation enrichment (Hck): 0.706
phosphorylation enrichment (FGFR1): 0.767
phosphorylation enrichment (c-Src): 0.782
phosphorylation enrichment (FGFR3): 1.04
phosphorylation enrichment (EPHB1): 0.637

Sequence: IEDPYYGNDSD [ACP1_Y133]
SH2 binding enrichment (Grb2 SH2): 1.07
SH2 binding enrichment (SHP2-C SH2): 0.709
SH2 binding enrichment (c-Src SH2): 0.623
phosphorylation enrichment (Jak2): 1.35
phosphorylation enrichment (Fer (mouse)): 0.548
phosphorylation enrichment (AncSZ): 1.5
phosphorylation enrichment (c-Abl (mouse)): 0.83
phosphorylation enrichment (Fyn): 0.81
phosphorylation enrichment (MERTK): 0.45
phosphorylation enrichment (EPHB2): 0.809
phosphorylation enrichment (Fes): 1.39
phosphorylation enrichment (Hck): 0.759
phosphorylation enrichment (FGFR1): 0.807
phosphorylation enrichment (c-Src): 1.6
phosphorylation enrichment (FGFR3): 1.09
phosphorylation enrichment (EPHB1): 0.638

Sequence: EWQQTYTYDSG [JUP_Y20]
SH2 binding enrichment (Grb2 SH2): 0.813
SH2 binding enrichment (SHP2-C SH2): 0.775
SH2 binding enrichment (c-Src SH2): 1.01
phosphorylation enrichment (Jak2): 0.898
phosphorylation enrichment (Fer (mouse)): 0.513
phosphorylation enrichment (AncSZ): 1.12
phosphorylation enrichment (c-Abl (mouse)): 0.657
phosphorylation enrichment (Fyn): 1.28
phosphorylation enrichment (MERTK): 0.817
phosphorylation enrichment (EPHB2): 0.585
phosphorylation enrichment (Fes): 1.02
phosphorylation enrichment (Hck): 0.783
phosphorylation enrichment (FGFR1): 1.17
phosphorylation enrichment (c-Src): 3.88
phosphorylation enrichment (FGFR3): 0.99
phosphorylation enrichment (EPHB1): 0.554

Second part, led by results:

SH2 binding enrichment (Grb2 SH2): 0.639
SH2 binding enrichment (SHP2-C SH2): 0.551
SH2 binding enrichment (c-Src SH2): 0.469
Sequence: SVTCTYSPTLN [TP53_Y126_A129T]
phosphorylation enrichment (Jak2): 1.4
phosphorylation enrichment (Fer (mouse)): 0.667
phosphorylation enrichment (AncSZ): 1.48
phosphorylation enrichment (c-Abl (mouse)): 0.926
phosphorylation enrichment (Fyn): 0.566
phosphorylation enrichment (MERTK): 0.503
phosphorylation enrichment (EPHB2): 0.682
phosphorylation enrichment (Fes): 1.58
phosphorylation enrichment (Hck): 0.625
phosphorylation enrichment (FGFR1): 0.606
phosphorylation enrichment (c-Src): 0.58
phosphorylation enrichment (FGFR3): 0.912
phosphorylation enrichment (EPHB1): 0.92

SH2 binding enrichment (Grb2 SH2): 0.703
SH2 binding enrichment (SHP2-C SH2): 0.537
SH2 binding enrichment (c-Src SH2): 0.511
Sequence: KDFTIYNPNLL [VANGL1_Y290]
phosphorylation enrichment (Jak2): 0.815
phosphorylation enrichment (Fer (mouse)): 0.599
phosphorylation enrichment (AncSZ): 0.722
phosphorylation enrichment (c-Abl (mouse)): 0.71
phosphorylation enrichment (Fyn): 0.787
phosphorylation enrichment (MERTK): 0.478
phosphorylation enrichment (EPHB2): 0.42
phosphorylation enrichment (Fes): 0.835
phosphorylation enrichment (Hck): 1.58
phosphorylation enrichment (FGFR1): 0.434
phosphorylation enrichment (c-Src): 1.2
phosphorylation enrichment (FGFR3): 0.518
phosphorylation enrichment (EPHB1): 0.419

SH2 binding enrichment (Grb2 SH2): 0.748
SH2 binding enrichment (SHP2-C SH2): 0.762
SH2 binding enrichment (c-Src SH2): 0.438
Sequence: IRDLKYTIENP [SND1_Y178]
phosphorylation enrichment (Jak2): 1.19
phosphorylation enrichment (Fer (mouse)): 0.541
phosphorylation enrichment (AncSZ): 1.21
phosphorylation enrichment (c-Abl (mouse)): 0.785
phosphorylation enrichment (Fyn): 0.456
phosphorylation enrichment (MERTK): 0.407
phosphorylation enrichment (EPHB2): 0.522
phosphorylation enrichment (Fes): 1.38
phosphorylation enrichment (Hck): 0.507
phosphorylation enrichment (FGFR1): 0.776
phosphorylation enrichment (c-Src): 0.47
phosphorylation enrichment (FGFR3): 0.807
phosphorylation enrichment (EPHB1): 0.521

SH2 binding enrichment (Grb2 SH2): 0.637
SH2 binding enrichment (SHP2-C SH2): 0.436
SH2 binding enrichment (c-Src SH2): 0.468
Sequence: EGGFAYVPLKD [PRIM2_Y208_D204G]
phosphorylation enrichment (Jak2): 1.12
phosphorylation enrichment (Fer (mouse)): 0.379
phosphorylation enrichment (AncSZ): 1.19
phosphorylation enrichment (c-Abl (mouse)): 0.699
phosphorylation enrichment (Fyn): 0.369
phosphorylation enrichment (MERTK): 0.371
phosphorylation enrichment (EPHB2): 0.567
phosphorylation enrichment (Fes): 1.05
phosphorylation enrichment (Hck): 0.404
phosphorylation enrichment (FGFR1): 0.399
phosphorylation enrichment (c-Src): 0.419
phosphorylation enrichment (FGFR3): 0.497
phosphorylation enrichment (EPHB1): 0.466

SH2 binding enrichment (Grb2 SH2): 0.923
SH2 binding enrichment (SHP2-C SH2): 1.13
SH2 binding enrichment (c-Src SH2): 0.982
Sequence: CTTIHQNYMCN [TP53_Y234_Y234Q]
phosphorylation enrichment (Jak2): 0.796
phosphorylation enrichment (Fer (mouse)): 0.387
phosphorylation enrichment (AncSZ): 0.735
phosphorylation enrichment (c-Abl (mouse)): 0.695
phosphorylation enrichment (Fyn): 0.361
phosphorylation enrichment (MERTK): 0.503
phosphorylation enrichment (EPHB2): 0.432
phosphorylation enrichment (Fes): 0.917
phosphorylation enrichment (Hck): 0.41
phosphorylation enrichment (FGFR1): 0.463
phosphorylation enrichment (c-Src): 0.414
phosphorylation enrichment (FGFR3): 0.56
phosphorylation enrichment (EPHB1): 0.536

SH2 binding enrichment (Grb2 SH2): 1
SH2 binding enrichment (SHP2-C SH2): 0.783
SH2 binding enrichment (c-Src SH2): 0.553
Sequence: KDHPDYKFPPR [SOX10_Y171_Q174P_YF]
phosphorylation enrichment (Jak2): 0.564
phosphorylation enrichment (Fer (mouse)): 0.376
phosphorylation enrichment (AncSZ): 0.883
phosphorylation enrichment (c-Abl (mouse)): 0.52
phosphorylation enrichment (Fyn): 0.415
phosphorylation enrichment (MERTK): 0.393
phosphorylation enrichment (EPHB2): 0.444
phosphorylation enrichment (Fes): 0.685
phosphorylation enrichment (Hck): 0.382
phosphorylation enrichment (FGFR1): 0.656
phosphorylation enrichment (c-Src): 0.434
phosphorylation enrichment (FGFR3): 0.762
phosphorylation enrichment (EPHB1): 0.387

SH2 binding enrichment (Grb2 SH2): 1.08
SH2 binding enrichment (SHP2-C SH2): 3.24
SH2 binding enrichment (c-Src SH2): 6.3
Sequence: CTTVHYNYMCN [TP53_Y234_I232V]
phosphorylation enrichment (Jak2): 0.768
phosphorylation enrichment (Fer (mouse)): 0.77
phosphorylation enrichment (AncSZ): 0.816
phosphorylation enrichment (c-Abl (mouse)): 0.557
phosphorylation enrichment (Fyn): 0.448
phosphorylation enrichment (MERTK): 0.469
phosphorylation enrichment (EPHB2): 0.496
phosphorylation enrichment (Fes): 0.915
phosphorylation enrichment (Hck): 0.468
phosphorylation enrichment (FGFR1): 0.52
phosphorylation enrichment (c-Src): 0.492
phosphorylation enrichment (FGFR3): 0.622
phosphorylation enrichment (EPHB1): 0.542

SH2 binding enrichment (Grb2 SH2): 1.21
SH2 binding enrichment (SHP2-C SH2): 0.725
SH2 binding enrichment (c-Src SH2): 0.634
Sequence: RNNIEYVRDIG [MUSK_Y577]
phosphorylation enrichment (Jak2): 0.436
phosphorylation enrichment (Fer (mouse)): 0.426
phosphorylation enrichment (AncSZ): 0.676
phosphorylation enrichment (c-Abl (mouse)): 0.602
phosphorylation enrichment (Fyn): 0.369
phosphorylation enrichment (MERTK): 0.3
phosphorylation enrichment (EPHB2): 0.404
phosphorylation enrichment (Fes): 0.693
phosphorylation enrichment (Hck): 0.395
phosphorylation enrichment (FGFR1): 0.413
phosphorylation enrichment (c-Src): 0.416
phosphorylation enrichment (FGFR3): 0.58
phosphorylation enrichment (EPHB1): 0.437
